Experiments:
AncSZ = assay: phosphorylation enrichment, bacterial display (enrichment ratio); higher = better substrate or ligand; peptides without Tyr show the background
EPHB1 = EPHB1 (UniProt P54762); assay: as above
EPHB2 = EPHB2 (UniProt P29323); assay: as above
FGFR1 = FGFR1 (UniProt P11362); assay: as above
FGFR3 = FGFR3 (UniProt P22607); assay: as above
Fer (mouse) = assay: as above
Fes = Fes (UniProt P07332); assay: as above
Fyn = Fyn (UniProt P06241); assay: as above
Hck = Hck (UniProt P08631); assay: as above
Hck, sequence (P08631 whole entry, looked up): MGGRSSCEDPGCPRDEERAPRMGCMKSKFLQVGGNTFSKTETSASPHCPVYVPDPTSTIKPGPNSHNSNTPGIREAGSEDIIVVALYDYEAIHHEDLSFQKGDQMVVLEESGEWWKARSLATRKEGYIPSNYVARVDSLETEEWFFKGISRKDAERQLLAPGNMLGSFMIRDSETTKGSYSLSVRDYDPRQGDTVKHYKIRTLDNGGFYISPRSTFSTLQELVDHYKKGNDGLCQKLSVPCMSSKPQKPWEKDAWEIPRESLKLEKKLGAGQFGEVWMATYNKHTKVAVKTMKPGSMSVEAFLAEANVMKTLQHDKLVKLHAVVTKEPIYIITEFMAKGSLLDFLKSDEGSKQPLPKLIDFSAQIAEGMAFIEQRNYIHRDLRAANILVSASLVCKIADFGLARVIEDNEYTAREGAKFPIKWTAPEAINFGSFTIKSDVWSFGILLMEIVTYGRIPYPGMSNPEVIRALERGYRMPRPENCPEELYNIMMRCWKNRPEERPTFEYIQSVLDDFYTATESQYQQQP

Jak2 = Jak2 (UniProt O60674); assay: as above
MERTK = MERTK (UniProt Q12866); assay: as above
MERTK, sequence (Q12866 whole entry, looked up): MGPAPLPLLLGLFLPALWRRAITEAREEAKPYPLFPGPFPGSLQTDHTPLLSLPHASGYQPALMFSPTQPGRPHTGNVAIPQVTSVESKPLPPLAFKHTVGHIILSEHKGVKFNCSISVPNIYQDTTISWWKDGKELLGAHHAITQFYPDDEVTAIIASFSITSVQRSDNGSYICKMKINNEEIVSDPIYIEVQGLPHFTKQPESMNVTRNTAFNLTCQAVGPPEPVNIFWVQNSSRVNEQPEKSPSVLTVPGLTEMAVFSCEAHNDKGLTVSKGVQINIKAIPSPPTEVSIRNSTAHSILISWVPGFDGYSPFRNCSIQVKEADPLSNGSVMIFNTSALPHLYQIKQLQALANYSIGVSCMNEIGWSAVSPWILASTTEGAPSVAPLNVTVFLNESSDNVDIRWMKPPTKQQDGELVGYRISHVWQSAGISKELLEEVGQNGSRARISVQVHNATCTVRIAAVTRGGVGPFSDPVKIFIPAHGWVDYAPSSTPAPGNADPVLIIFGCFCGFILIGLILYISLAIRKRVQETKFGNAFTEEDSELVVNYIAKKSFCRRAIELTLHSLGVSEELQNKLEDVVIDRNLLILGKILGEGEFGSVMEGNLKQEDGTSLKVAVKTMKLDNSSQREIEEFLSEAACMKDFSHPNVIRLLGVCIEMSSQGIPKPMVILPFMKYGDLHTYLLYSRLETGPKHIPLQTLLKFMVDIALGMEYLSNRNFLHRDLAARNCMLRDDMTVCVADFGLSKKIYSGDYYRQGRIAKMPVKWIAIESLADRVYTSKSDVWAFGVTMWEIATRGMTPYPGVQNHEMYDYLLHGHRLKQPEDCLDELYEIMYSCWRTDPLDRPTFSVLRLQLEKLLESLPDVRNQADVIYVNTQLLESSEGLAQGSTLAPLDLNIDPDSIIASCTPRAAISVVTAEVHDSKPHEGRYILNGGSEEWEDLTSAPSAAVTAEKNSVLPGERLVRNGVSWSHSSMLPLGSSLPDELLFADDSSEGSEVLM

c-Abl (mouse) = assay: as above
c-Src = assay: as above
Grb2 SH2 = Grb2 SH2 (UniProt P62993); assay: SH2 binding enrichment of the phosphorylated peptide, bacterial display (enrichment ratio); higher = better substrate or ligand; peptides without Tyr show the background
SHP2-C SH2 = assay: as above
c-Src SH2 = assay: as above
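For SH2 binding enrichment of the phosphorylated peptide, bacterial display in this document: peptide library displayed on the E. coli surface as eCPX fusions, selected cells deep-sequenced, score is each peptide's frequency after selection divided by its frequency in the input.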
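For phosphorylation enrichment, bacterial display in this document: 11-residue human phosphosite peptides and single-mutation variants displayed on the E. coli surface, counted by deep sequencing, each peptide's frequency after selection divided by its frequency in the unselected input library; frequency after pTyr selection over input frequency; kinase dosed for 20-30% of maximal phosphorylation in three min.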

EPHB1, sequence (P54762 whole entry, looked up): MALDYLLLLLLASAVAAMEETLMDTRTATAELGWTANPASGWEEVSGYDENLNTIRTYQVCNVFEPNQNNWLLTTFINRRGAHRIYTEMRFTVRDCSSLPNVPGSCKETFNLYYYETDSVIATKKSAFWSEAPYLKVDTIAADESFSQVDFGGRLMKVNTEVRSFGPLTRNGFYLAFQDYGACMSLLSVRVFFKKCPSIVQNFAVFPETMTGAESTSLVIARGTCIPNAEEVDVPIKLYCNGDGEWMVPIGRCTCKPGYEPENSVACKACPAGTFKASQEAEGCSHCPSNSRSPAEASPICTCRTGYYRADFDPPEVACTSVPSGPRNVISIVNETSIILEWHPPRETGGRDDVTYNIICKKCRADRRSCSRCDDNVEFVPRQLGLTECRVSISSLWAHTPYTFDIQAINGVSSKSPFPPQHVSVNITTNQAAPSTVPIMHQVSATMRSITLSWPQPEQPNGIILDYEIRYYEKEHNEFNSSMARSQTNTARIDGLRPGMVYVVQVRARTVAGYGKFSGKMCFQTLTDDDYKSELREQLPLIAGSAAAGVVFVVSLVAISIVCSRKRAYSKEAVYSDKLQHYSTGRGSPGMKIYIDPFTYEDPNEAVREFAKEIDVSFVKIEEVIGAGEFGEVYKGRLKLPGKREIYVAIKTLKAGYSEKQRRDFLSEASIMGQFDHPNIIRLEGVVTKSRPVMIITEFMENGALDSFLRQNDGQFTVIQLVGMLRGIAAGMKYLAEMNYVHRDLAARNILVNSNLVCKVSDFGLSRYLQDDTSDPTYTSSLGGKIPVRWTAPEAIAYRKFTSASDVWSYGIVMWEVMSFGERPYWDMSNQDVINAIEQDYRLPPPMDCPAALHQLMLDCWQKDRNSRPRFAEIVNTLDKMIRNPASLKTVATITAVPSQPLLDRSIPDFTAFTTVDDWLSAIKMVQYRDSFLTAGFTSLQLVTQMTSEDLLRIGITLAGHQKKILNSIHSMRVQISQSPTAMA
Fes, sequence (P07332 whole entry, looked up): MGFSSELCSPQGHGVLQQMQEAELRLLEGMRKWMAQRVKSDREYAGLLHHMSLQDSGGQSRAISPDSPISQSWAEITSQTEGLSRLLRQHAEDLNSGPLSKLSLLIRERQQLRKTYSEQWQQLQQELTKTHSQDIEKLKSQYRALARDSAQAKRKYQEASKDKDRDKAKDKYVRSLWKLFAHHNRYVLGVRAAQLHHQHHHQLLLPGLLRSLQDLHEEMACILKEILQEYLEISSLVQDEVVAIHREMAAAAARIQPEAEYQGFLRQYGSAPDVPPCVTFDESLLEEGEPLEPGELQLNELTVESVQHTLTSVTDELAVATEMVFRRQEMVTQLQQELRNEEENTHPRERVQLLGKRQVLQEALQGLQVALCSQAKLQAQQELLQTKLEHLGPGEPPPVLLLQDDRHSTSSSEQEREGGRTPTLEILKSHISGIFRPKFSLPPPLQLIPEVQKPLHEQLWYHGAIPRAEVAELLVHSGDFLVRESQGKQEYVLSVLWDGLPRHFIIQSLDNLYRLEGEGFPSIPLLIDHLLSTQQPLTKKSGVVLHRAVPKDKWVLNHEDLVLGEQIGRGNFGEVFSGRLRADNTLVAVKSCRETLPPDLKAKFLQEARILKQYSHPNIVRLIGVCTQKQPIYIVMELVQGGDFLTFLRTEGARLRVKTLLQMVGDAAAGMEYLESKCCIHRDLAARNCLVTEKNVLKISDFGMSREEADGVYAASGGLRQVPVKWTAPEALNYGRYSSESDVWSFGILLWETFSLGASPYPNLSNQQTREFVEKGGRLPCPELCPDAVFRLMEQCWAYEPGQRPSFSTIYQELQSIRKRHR
FGFR1, sequence (P11362 whole entry, looked up): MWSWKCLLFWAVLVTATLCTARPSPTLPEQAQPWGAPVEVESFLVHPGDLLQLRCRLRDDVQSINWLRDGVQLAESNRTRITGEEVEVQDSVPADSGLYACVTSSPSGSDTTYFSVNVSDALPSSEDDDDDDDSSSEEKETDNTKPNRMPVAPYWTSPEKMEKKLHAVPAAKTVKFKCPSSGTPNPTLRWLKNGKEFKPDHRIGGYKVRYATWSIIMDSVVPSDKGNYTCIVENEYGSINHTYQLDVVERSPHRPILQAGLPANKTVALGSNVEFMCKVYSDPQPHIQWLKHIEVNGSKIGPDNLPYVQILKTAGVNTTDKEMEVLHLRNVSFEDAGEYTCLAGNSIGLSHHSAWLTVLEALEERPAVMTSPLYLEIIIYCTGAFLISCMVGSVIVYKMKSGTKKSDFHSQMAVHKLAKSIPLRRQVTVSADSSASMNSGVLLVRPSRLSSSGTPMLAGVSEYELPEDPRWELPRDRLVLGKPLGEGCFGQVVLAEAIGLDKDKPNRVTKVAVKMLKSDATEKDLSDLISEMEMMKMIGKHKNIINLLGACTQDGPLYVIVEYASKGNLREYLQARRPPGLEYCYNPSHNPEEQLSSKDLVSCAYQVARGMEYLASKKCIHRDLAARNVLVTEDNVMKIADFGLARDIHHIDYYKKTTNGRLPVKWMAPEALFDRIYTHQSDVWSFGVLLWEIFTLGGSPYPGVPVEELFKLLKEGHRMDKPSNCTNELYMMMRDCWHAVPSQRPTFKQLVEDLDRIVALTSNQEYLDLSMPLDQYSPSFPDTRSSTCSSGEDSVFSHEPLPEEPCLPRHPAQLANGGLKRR
FGFR3, sequence (P22607 whole entry, looked up): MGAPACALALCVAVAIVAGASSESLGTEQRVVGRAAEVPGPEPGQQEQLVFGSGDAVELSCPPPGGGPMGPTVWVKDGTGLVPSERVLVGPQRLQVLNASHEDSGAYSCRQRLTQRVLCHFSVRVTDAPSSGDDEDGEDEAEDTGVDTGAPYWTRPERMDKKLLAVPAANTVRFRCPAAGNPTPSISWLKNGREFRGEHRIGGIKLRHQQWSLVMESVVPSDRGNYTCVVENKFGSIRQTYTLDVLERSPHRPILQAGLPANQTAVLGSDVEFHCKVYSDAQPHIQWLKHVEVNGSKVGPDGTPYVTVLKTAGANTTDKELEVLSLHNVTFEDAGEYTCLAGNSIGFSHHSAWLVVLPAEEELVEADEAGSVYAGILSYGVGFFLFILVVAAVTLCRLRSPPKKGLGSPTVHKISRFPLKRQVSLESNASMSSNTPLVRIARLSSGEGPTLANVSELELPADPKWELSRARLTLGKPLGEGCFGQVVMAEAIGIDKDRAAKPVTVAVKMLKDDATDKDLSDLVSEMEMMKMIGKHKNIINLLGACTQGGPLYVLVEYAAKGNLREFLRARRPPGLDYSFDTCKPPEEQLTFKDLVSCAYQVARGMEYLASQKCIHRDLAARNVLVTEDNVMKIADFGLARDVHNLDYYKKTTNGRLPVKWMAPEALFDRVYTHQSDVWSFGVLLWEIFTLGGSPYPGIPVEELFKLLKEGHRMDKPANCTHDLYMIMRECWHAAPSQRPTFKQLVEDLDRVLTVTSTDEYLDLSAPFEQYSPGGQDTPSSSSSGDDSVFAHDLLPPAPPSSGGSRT

Sequence	SH2 binding enrichment (Grb2 SH2)	SH2 binding enrichment (SHP2-C SH2)	SH2 binding enrichment (c-Src SH2)	phosphorylation enrichment (AncSZ)	phosphorylation enrichment (EPHB1)	phosphorylation enrichment (EPHB2)	phosphorylation enrichment (FGFR1)	phosphorylation enrichment (FGFR3)	phosphorylation enrichment (Fer (mouse))	phosphorylation enrichment (Fes)	phosphorylation enrichment (Fyn)	phosphorylation enrichment (Hck)	phosphorylation enrichment (Jak2)	phosphorylation enrichment (MERTK)	phosphorylation enrichment (c-Abl (mouse))	phosphorylation enrichment (c-Src)
ECKLFYSRKEG [PTPN11_Y263_L262F]	0.746	0.623	0.436	1.08	0.502	0.451	0.457	0.602	0.445	1	0.401	0.626	0.685	0.515	0.768	0.465
IMFTSYFLTIL [TAS2R16_Y239_V235M]	1.04	0.963	1.03	1.34	0.755	0.555	0.732	0.922	0.579	1.52	0.622	0.623	2.38	0.476	0.955	0.578
WANPEYTGGFK	0.801	0.618	0.656	1.29	0.549	0.383	0.43	0.646	0.413	1	0.422	0.575	0.734	0.364	0.917	0.685
SLLPDYEDEEE [ZNF830_Y159]	0.942	0.776	0.601	1.47	0.744	0.829	0.583	0.782	0.64	1.28	0.646	0.673	1.01	0.631	0.647	0.556
SGDINYGQFAQ [PLCG1_Y210_T209N]	1.07	0.596	0.526	0.727	0.478	0.63	0.289	0.548	0.423	0.683	0.554	0.65	0.631	0.387	0.874	0.647
LEFAKYGSLRG [RET_Y809_V804L_YF]	0.907	0.73	0.505	0.567	0.37	0.792	0.316	0.459	0.373	0.644	0.398	0.567	0.593	0.388	0.454	0.43
TNDMRYPMKSE [TGDS_Y302]	0.861	0.697	0.548	0.675	0.345	0.46	0.486	0.523	0.359	0.672	0.445	0.438	0.579	0.469	0.557	0.424
SEKVVYRRFTE [NCF1_Y41]	0.752	0.44	0.42	0.663	0.39	0.423	0.406	0.472	0.387	0.671	0.432	0.414	0.61	0.438	0.527	0.438
ILTFKYLQIPM [KIT_Y547_K550I_YF]	1.69	1.67	1.17	1.07	0.586	0.649	0.442	0.663	0.521	1.16	0.468	0.453	1.02	0.371	0.637	0.344
RALRHYFKLNI [ETV6_Y401_YF]	2.81	2.6	1.66	0.725	0.342	0.358	0.485	0.55	0.369	0.874	0.373	0.377	0.798	0.4	0.594	0.394

Now from value to sequence, other results behind:

SH2 binding enrichment (Grb2 SH2)	SH2 binding enrichment (SHP2-C SH2)	SH2 binding enrichment (c-Src SH2)	Sequence	phosphorylation enrichment (AncSZ)	phosphorylation enrichment (EPHB1)	phosphorylation enrichment (EPHB2)	phosphorylation enrichment (FGFR1)	phosphorylation enrichment (FGFR3)	phosphorylation enrichment (Fer (mouse))	phosphorylation enrichment (Fes)	phosphorylation enrichment (Fyn)	phosphorylation enrichment (Hck)	phosphorylation enrichment (Jak2)	phosphorylation enrichment (MERTK)	phosphorylation enrichment (c-Abl (mouse))	phosphorylation enrichment (c-Src)
0.96	0.794	0.545	WTAHSYRMGSA [ARHGEF7_Y785_T790A]	0.683	0.477	0.457	0.556	0.438	0.38	0.736	0.503	0.443	0.679	0.377	0.495	0.48
0.862	0.454	0.567	SSTASYFEAPG [RFX2_Y108]	0.789	0.445	0.487	4.92	3.47	0.378	0.802	0.442	0.433	0.968	0.449	0.531	0.432
0.956	0.781	0.503	SVTCTYSLALN [TP53_Y126_P128L]	1.21	0.688	0.6	0.653	0.802	0.558	1.38	0.78	0.628	1.13	0.614	0.951	1.65
0.819	0.63	0.319	QAQMDYRRLQP [MPL_Y591]	0.666	0.373	0.439	0.306	0.788	0.48	0.942	0.543	0.367	0.795	0.321	0.622	0.428
